From PMC3286869 (Journal of Medicinal Chemistry, 2012)
Bridges are numbered along the chain shown (N, C = ends). Where no end group is shown, it is not given here. [ ]: non-standard residue; d: D form. dLys(N3) = [N-]=[N+]=NCCCC[C@@H](N)C(=O)O; Lys(N3) = [N-]=[N+]=NCCCC[C@H](N)C(=O)O; dPra = C#CC[C@@H](N)C(=O)O; Pra = C#CC[C@H](N)C(=O)O

T1: β-catenin (UniProt P35222 1-781)
T1 sequence (looked up): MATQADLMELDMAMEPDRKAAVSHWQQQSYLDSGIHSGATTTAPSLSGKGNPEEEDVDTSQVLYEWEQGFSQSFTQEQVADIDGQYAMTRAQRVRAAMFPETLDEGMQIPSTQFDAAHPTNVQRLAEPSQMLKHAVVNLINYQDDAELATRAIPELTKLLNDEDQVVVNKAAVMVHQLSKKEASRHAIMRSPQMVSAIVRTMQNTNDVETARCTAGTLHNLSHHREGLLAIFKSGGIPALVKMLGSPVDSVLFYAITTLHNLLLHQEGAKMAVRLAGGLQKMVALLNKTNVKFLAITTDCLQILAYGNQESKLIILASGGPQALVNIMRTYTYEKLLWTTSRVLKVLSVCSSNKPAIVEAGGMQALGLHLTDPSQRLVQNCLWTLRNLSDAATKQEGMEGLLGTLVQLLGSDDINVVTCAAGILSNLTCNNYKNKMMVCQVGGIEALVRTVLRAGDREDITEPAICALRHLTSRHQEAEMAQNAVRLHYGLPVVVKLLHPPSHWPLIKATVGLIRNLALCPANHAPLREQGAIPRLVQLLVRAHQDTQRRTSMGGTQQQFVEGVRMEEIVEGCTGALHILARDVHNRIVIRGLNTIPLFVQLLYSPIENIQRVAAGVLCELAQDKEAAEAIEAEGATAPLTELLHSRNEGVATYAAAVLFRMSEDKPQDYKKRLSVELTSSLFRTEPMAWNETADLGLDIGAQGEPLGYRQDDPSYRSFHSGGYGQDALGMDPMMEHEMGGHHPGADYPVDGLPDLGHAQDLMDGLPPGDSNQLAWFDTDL


molecular target: T1, β-catenin; test: fluorescence polarisation

| Ki [nM] | Binder |
| --- | --- |
| 130 | LSQEQLEHR[Lys(N3)]RSL[dPra]TLRDIQRLLF (triazole 10-14; not fully specified (N-terminus, C-terminus)) [triazole-stapled BCL9 peptide 12] |
| 1170 | LSQEQLEHR[Pra]RSL[dLys(N3)]TLRDIQRLLF (triazole 10-14; not fully specified (N-terminus, C-terminus)) [triazole-stapled BCL9 peptide 17 (reversed staple, D-Nle(εN3) at i+4)] |
| 330 | LSQEQLEHR[Lys(N3)]RSL[Pra]TLRDIQRLLF (triazole 10-14; not fully specified (N-terminus, C-terminus)) [triazole-stapled BCL9 peptide 11] |
| 4900 | LSQEQLEHR[Lys(N3)]RSL[dPra]TLRDIQRLLF (not fully specified (N-terminus, C-terminus)) [BCL9 peptide 4 (linear precursor of 12)] |

The remaining lines, values behind:

| Binder | Ki [nM] |
| --- | --- |
| LSQEQLEHR[dPra]RSL[Lys(N3)]TLRDIQRLLF (triazole 10-14; not fully specified (N-terminus, C-terminus)) [triazole-stapled BCL9 peptide 18 (reversed staple, D-Pra at position 360)] | 4300 |
| LSQEQLEHR[Pra]RSL[dLys(N3)]TLRDIQRLLF (not fully specified (N-terminus, C-terminus)) [BCL9 peptide 9 (linear precursor of 17)] | 11000 |
| Ac-LSQEQLEHRERSLQTLRDIQRMLF-NH2 [BCL9 24-mer peptide 1] | 600 |
| Ac-LSQEQLEHRERSLQTLRDIQRLLF-NH2 [BCL9 24-mer peptide 2 (M372L)] | 940 |
| LSQEQLEHR[Lys(N3)]RSL[Pra]TLRDIQRLLF (not fully specified (N-terminus, C-terminus)) [BCL9 peptide 3 (linear precursor of 11)] | 1400 |
| LSQEQLEHR[Pra]RSL[Lys(N3)]TLRDIQRLLF (triazole 10-14; not fully specified (N-terminus, C-terminus)) [triazole-stapled BCL9 peptide 16 (reversed linker, L-Pra and L-Nle(εN3))] | 770 |

molecular target: T1, β-catenin; test: fluorescence polarisation; remark: another data set of the same source

| Ki [nM] | Binder |
| --- | --- |
| 260 | LSQEQLEHRERSL[Lys(N3)]TLR[dPra]IQRLLF (triazole 14-18; not fully specified (N-terminus, C-terminus)) [triazole-stapled BCL9 peptide 22 (C-terminal stapled peptide)] |
| 2010 | LSQEQLEHRERSL[Lys(N3)]TLR[dPra]IQRLLF (not fully specified (N-terminus, C-terminus)) [BCL9 peptide 21 (linkers closer to the C-terminus, linear)] |

The remaining lines, values behind:

| Binder | Ki [nM] |
| --- | --- |
| LSQEQ[Lys(N3)]EHR[dPra]RSLQTLRDIQRLLF (triazole 6-10; not fully specified (N-terminus, C-terminus)) [triazole-stapled BCL9 peptide 20 (staple closer to the N-terminus)] | 410 |
| LSQEQ[Lys(N3)]EHR[dPra]RSLQTLRDIQRLLF (not fully specified (N-terminus, C-terminus)) [BCL9 peptide 19 (linkers closer to the N-terminus, linear)] | 1970 |
| LSQEQLEHRERSL[Pra]TLR[dLys(N3)]IQRLLF (not fully specified (N-terminus, C-terminus)) [BCL9 peptide 23 (reverse linkers towards the C-terminus, linear)] | 6660 |
| LSQEQLEHRERSL[Pra]TLR[dLys(N3)]IQRLLF (triazole 14-18; not fully specified (N-terminus, C-terminus)) [triazole-stapled BCL9 peptide 24 (reverse staple towards the C-terminus)] | 560 |
